Laboratory results reported in PMC3520109 (mBio, 2012).

Tests used:
43A-c = settings: read-out: apparent Km; 100 mM citrate pH 6, 1 g/liter BSA, 50°C
purified protein = substrate: O=[N+]([O-])c1ccc(O[C@@H]2O[C@H](CO)[C@@H](O)[C@H](O)[C@H]2O)cc1; assay: purified protein; settings: 100 mM citrate pH 6, 1 g/liter BSA, 50°C

Molecule | Km (43A-c) [µM] | Km (purified protein) [µM] | kcat (purified protein) [s⁻¹]
O=[N+]([O-])c1ccc(O[C@@H]2OC[C@@H](O)[C@H](O)[C@H]2O)cc1 [pNPX] | 600 |  | 
Bgl1C (Thermobifida fusca) (protein) TSQSTTPLGNLEETPKPDIRFPSDFVWGVATASFQIEGSTTADGRGPSIWDTFCATPGKVENGDTGDPACDHYNRYRDDVALMRELGVGAYRFSIAWPRIQPEGKGTPVEAGLDFYDRLVDCLLEAGIEPWPTLYHWDLPQALEDAGGWPNRDTAKRFADYAEIVYRRLGDRITNWNTLNEPWCSAFLGYASGVHAPGRQEPAAALAAAHHLMLGHGLAAAVMRDLAGQAGRSVRIGVAHNQTTVRPYTDSEADRDAARRIDALRNRIFTEPLVKGRYPEDLIEDVAAVTDYSFVQDGDLKTISANLDMMGVNFYNPSWVSGNRENGGSDRLPDEGYSPSVGSEHVVEVDPGLPVTAMGWPIDPTGLYDTLTRLANDYPGLPLYITENGAAFEDKVVDGAVHDTERIAYLDSHLRAAHAAIEAGVPLKGYFAWSFMDNFEWALGYGKRFGIVHVDYESQTRTVKDSGWWYSRVMRNGGIFGQE |  | 600 | 2.08
